Test results from the Human Domainome abundance scans (Beltran et al. 2025).
± gives the uncertainty stated by the source.

B1: Glucocorticoid receptor, residues 419 to 494; numbered along this chain, P04150 (parent)
chain: KLCLVCSDEASGCHYGVLTCGSCKVFFKRAVEGQHNYLCAGRNDCIIDKIRRKNCPACRYRKCLQAGMNLEARKTK

Variants of: B1
Test: abundance fitness (aPCA) (normalised: wild type 0, dead -1); higher = more abundant; growth selection in yeast, the domain comes from the species named
Settings: Homo sapiens
KLCLVCSDEASGCHYGVLTCGSCKVFFKRAVEGQHNYLCAGRNDCIIDKIWRKNCPACRYRKCLQAGMNLEARKTK [R51W] showed an abundance fitness of -0.083 ± 0.043. Variant KLCLVCSDEASGCHYGVLTCGSCKVFFKRAVEGQHNYLCAGRNECIIDKIRRKNCPACRYRKCLQAGMNLEARKTK [D44E] has an abundance fitness of 0.032 ± 0.044. Variant KLCLVCSDEASGCHYGVLTCGSCKVFFKRAVCGQHNYLCAGRNDCIIDKIRRKNCPACRYRKCLQAGMNLEARKTK [E32C] has an abundance fitness of -0.031 ± 0.056. For KLCLVCADEASGCHYGVLTCGSCKVFFKRAVEGQHNYLCAGRNDCIIDKIRRKNCPACRYRKCLQAGMNLEARKTK [S7A], the abundance fitness was 0.098 ± 0.038. Variant KLCLVCSDEASGCHYGVLTCGSCKVFFKRAVEGQHNYLCAGRNDCIIDKIRRKNCPACRYRKCMQAGMNLEARKTK [L64M] has an abundance fitness of -0.023 ± 0.053. KLCLVCSDEASGCHYGVLTCGSCKVFFKRAVEGQHNYLCAGRNDCIIDKIRRKNCPACRYRKCYQAGMNLEARKTK [L64Y] gave an abundance fitness of -0.161 ± 0.061. KLCLVCSDEASGCHYGVITCGSCKVFFKRAVEGQHNYLCAGRNDCIIDKIRRKNCPACRYRKCLQAGMNLEARKTK [L18I] showed an abundance fitness of 0.035 ± 0.082. With KLCLVCSDEASGCHYGVLTCGSCKVFFKRAVEGQHNYLCAGRNDCIIDKIRRKNCPSCRYRKCLQAGMNLEARKTK [A57S] the abundance fitness was -0.02 ± 0.035. Work on KLCLVCSDEASGCHYGVLTCGSCKVFFKRAVEGQHNYLCAGRNDCIIDKIRRKNCPDCRYRKCLQAGMNLEARKTK [A57D] yielded an abundance fitness of -0.182 ± 0.067. In the case of KLCLVCSDEASGCHYGVLTCGSCKVFFKRAVEGQHNYLCAGRNDCIIDKIRRKNCPACRYRKCLQAGMNLEARETK [K74E], the abundance fitness is reported as 0.091 ± 0.053. For KLCLVCSDEASGCHYGVLTCGSCKVFFKRAVEGQINYLCAGRNDCIIDKIRRKNCPACRYRKCLQAGMNLEARKTK [H35I], the abundance fitness was -0.071 ± 0.072. KLCLVCSDEASGCHYGVLTCGSCKVFFKRAVEGQHNYLCAGRNDCIIDKIRRKNCPACDYRKCLQAGMNLEARKTK [R59D] showed an abundance fitness of -0.609 ± 0.21. Work on KLCLVCSDEASGCHYGVLTCGSCKVFFKRAVEGQHNYLCALRNDCIIDKIRRKNCPACRYRKCLQAGMNLEARKTK [G41L] yielded an abundance fitness of -0.013 ± 0.035. In the case of KLCLVCSDEASGCHYGVLTCGSCKVFFKRAVEGQHNYLCAGRNDCIIDKIRRKNCKACRYRKCLQAGMNLEARKTK [P56K], the abundance fitness is reported as -0.108 ± 0.052. KLCLVCSDEASGCHYGVLTCGSCKVFFKRAVEGQHNYLCAGRNDCIIDKIRRKNCQACRYRKCLQAGMNLEARKTK [P56Q] gave an abundance fitness of -0.001 ± 0.045. KLCLVCSDEASGCHYGVLTCGSCKVFFKRQVEGQHNYLCAGRNDCIIDKIRRKNCPACRYRKCLQAGMNLEARKTK [A30Q] gave an abundance fitness of -0.192 ± 0.049. Variant KLCLVCSDEASGCHYGVLTCGSCKVFFKRIVEGQHNYLCAGRNDCIIDKIRRKNCPACRYRKCLQAGMNLEARKTK [A30I] has an abundance fitness of -0.071 ± 0.083. KLCLVCSDEASGCHYGVLTCGSCKVFFKRAVEGQHLYLCAGRNDCIIDKIRRKNCPACRYRKCLQAGMNLEARKTK [N36L] showed an abundance fitness of -0.036 ± 0.036. Work on KLCLVCSDEASGCHYGVLTCGSCKVFFKRAVEGQHWYLCAGRNDCIIDKIRRKNCPACRYRKCLQAGMNLEARKTK [N36W] yielded an abundance fitness of -0.151 ± 0.045. Variant KLCLVCSDEASGCHYGVLTMGSCKVFFKRAVEGQHNYLCAGRNDCIIDKIRRKNCPACRYRKCLQAGMNLEARKTK [C20M] has an abundance fitness of -0.651 ± 0.13. For KLCLVCSDEASGCHYGVLTCGSCKVFFKRAVEGQHNYLCAGRNDCIIDKIRRKNCPAIRYRKCLQAGMNLEARKTK [C58I], the abundance fitness was -0.81 ± 0.22. Work on KLCLVCSDEASGCHYGVLTCGSCKVFFKRAVEGQHNYLCAGRNDCIIDKIRRKNCPAMRYRKCLQAGMNLEARKTK [C58M] yielded an abundance fitness of -0.896 ± 0.17. With KLCLVCSDEASGCHYGVLTCGSCKVFFKRAVEGQHNYLCAGRNDCIIYKIRRKNCPACRYRKCLQAGMNLEARKTK [D48Y] the abundance fitness was -0.139 ± 0.1. With KLCLVCSDEASGCHYGVLTCGSCKVFFKRAVEGQHNYLCAGRNDCIIHKIRRKNCPACRYRKCLQAGMNLEARKTK [D48H] the abundance fitness was -0.449 ± 0.14. KLCLVCSDEASGCHYGVLTCGSCKVFFKRAVEGQHNYLCAGRNDCIITKIRRKNCPACRYRKCLQAGMNLEARKTK [D48T] showed an abundance fitness of -0.045 ± 0.046. Variant KLCLVCSDEASGCHYGVLTCGSCKVFFKRAVEGQHNYECAGRNDCIIDKIRRKNCPACRYRKCLQAGMNLEARKTK [L38E] has an abundance fitness of 0.012 ± 0.036. With KLCLVCSDEASGCHYGVLTCGSCKVFFKRAVEGQHNYLCAGRNDCIIDKIRRKNCPACRYRKCLQAGMHLEARKTK [N69H] the abundance fitness was 0.028 ± 0.067. KLCLVCSDEASGAHYGVLTCGSCKVFFKRAVEGQHNYLCAGRNDCIIDKIRRKNCPACRYRKCLQAGMNLEARKTK [C13A] showed an abundance fitness of -0.02 ± 0.038. In the case of KLCLVCSDEASGCHYGVLTCNSCKVFFKRAVEGQHNYLCAGRNDCIIDKIRRKNCPACRYRKCLQAGMNLEARKTK [G21N], the abundance fitness is reported as -0.15 ± 0.09. Work on KLCLVCSDEASGCHYGVLTCGSCKVFDKRAVEGQHNYLCAGRNDCIIDKIRRKNCPACRYRKCLQAGMNLEARKTK [F27D] yielded an abundance fitness of -0.912 ± 0.18. With KLCLVCSDEASGCHYGVLTCGSCKVFFKRAVEGQHNYLCAGRNDCITDKIRRKNCPACRYRKCLQAGMNLEARKTK [I47T] the abundance fitness was -0.125 ± 0.039. KLCLVCSDEASGCHYGVLTCGSCKVFFKRAVEGQHNYLCAGRNDCIGDKIRRKNCPACRYRKCLQAGMNLEARKTK [I47G] showed an abundance fitness of -0.304 ± 0.034. Work on KLCLVCSDEASGCHYGVLTCGSCKVFFKRAVEGQHNYLCAGRNDCIHDKIRRKNCPACRYRKCLQAGMNLEARKTK [I47H] yielded an abundance fitness of -0.304 ± 0.18. LLCLVCSDEASGCHYGVLTCGSCKVFFKRAVEGQHNYLCAGRNDCIIDKIRRKNCPACRYRKCLQAGMNLEARKTK [K1L] showed an abundance fitness of -0.236 ± 0.058. KLCLVVSDEASGCHYGVLTCGSCKVFFKRAVEGQHNYLCAGRNDCIIDKIRRKNCPACRYRKCLQAGMNLEARKTK [C6V] showed an abundance fitness of -1.06 ± 0.15. KLCLVSSDEASGCHYGVLTCGSCKVFFKRAVEGQHNYLCAGRNDCIIDKIRRKNCPACRYRKCLQAGMNLEARKTK [C6S] gave an abundance fitness of -1.22 ± 0.25.
